Data reported in paper PMC12083921.

What was measured:
[1] = biological target: AKAP79^FAAF, GFP-tagged, full length (human) (human) (UniProt P24588); experiment: co-IP
[2] = biological target: AKAP79, mRFP-tagged, full length (human) (human) (UniProt P24588); experiment: FRAP
[3] = biological target: AKAP79^FAAF, mRFP-tagged (human) (human) (UniProt P24588); experiment: FRAP
[4] = biological target: AKAP79^AF, GFP-tagged, full length (human) (human) (UniProt P24588); experiment: co-IP
[5] = biological target: AKAP79^FA, GFP-tagged, full length (human) (human) (UniProt P24588); experiment: co-IP
[6] = biological target: AKAP150, mRFP-tagged (rat) (rat) (UniProt P24587); experiment: FRAP
Sequence of UniProt P24587 (P24587 whole entry): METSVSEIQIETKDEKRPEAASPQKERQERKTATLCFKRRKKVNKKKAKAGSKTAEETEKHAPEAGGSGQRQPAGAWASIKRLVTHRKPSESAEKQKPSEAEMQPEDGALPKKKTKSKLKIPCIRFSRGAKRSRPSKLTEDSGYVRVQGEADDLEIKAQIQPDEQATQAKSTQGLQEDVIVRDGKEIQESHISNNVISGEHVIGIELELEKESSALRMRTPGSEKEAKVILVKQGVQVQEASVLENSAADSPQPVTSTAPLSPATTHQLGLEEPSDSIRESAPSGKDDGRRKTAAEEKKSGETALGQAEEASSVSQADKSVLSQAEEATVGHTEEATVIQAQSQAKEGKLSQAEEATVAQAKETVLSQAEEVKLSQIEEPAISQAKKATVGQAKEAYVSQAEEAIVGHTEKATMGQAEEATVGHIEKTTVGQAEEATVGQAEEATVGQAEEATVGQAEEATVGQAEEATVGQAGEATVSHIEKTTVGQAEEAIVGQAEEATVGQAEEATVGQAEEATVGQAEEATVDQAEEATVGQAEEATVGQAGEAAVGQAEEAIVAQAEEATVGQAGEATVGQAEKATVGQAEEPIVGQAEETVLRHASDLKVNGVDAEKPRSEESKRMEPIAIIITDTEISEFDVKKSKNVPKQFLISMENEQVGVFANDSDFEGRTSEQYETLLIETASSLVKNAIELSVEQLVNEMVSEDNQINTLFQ

Substance	fold RI band intensity over controls [1] [fold]	FRAP recovery half-time [2] [s]	FRAP recovery rate constant [2] [s⁻¹]	FRAP recovery half-time [3] [s]	FRAP recovery rate constant [3] [s⁻¹]	percent decrease of RII binding against WT AKAP79 [4] [%]	percent decrease of RII binding against WT AKAP79 [5] [%]	percent decrease of RII binding against WT AKAP79 [1] [%]	FRAP recovery half-time [6] [s]	FRAP recovery rate constant [6] [s⁻¹]
PKA type I regulatory subunit alpha (RIα), endogenous (from UniProt P10644 1-381) (natural protein)	3.55	–	–	–	–	–	–	–	–	–
PKA type I regulatory subunit alpha, iRFP-tagged (RI-iRFP) (from UniProt P10644 1-381) (natural protein)	–	8.74	0.079	20.5	0.034	–	–	–	–	–
PKA type II regulatory subunit alpha (RIIα), endogenous (from UniProt P13861 1-404) (natural protein)	–	–	–	–	–	22	45	45	–	–
PKA type II regulatory subunit alpha, iRFP-tagged (RII-iRFP) (from UniProt P13861 1-404) (natural protein)	–	14.4	0.049	11.4	0.062	–	–	–	12.3	0.057
